Measured values as given in PMC8630788.
One block for each molecule: values may come before it.

Experiments:
[1] = biological target: optimized bait-PAR-Grb2, GFP-fused (with inserted flexible linker sequences between fluorophore and Grb2) (UniProt P62993); assay: TIR-FRAP on bait micropatterns; live HeLa cells co-transfected with bait-PAR-Grb2 and prey on anti-HA patterns; EGF (170 nM) for at least 5 min before FRAP; single patterns bleached for 500 ms; bi-exponential, diffusion-uncoupled two-component fit
[2] = biological target: optimized bait-PAR-Grb2, GFP-fused (with inserted flexible linker sequences between fluorophore and Grb2) (UniProt P62993); assay: subcellular micropatterning (bait-prey copatterning, TIRF microscopy); live HeLa cells co-expressing bait-PAR-Grb2 and fluorescent prey on anti-HA antibody patterned COP substrate; bait-normalized prey contrast; basal conditions, before EGF
[3] = biological target: optimized bait-PAR-Grb2, GFP-fused (with inserted flexible linker sequences between fluorophore and Grb2) (UniProt P62993); assay: subcellular micropatterning (bait-prey copatterning, TIRF microscopy); live HeLa cells co-expressing bait-PAR-Grb2 and fluorescent prey on anti-HA antibody patterned COP substrate; bait-normalized prey contrast; after EGF stimulation (170 nM, 10 min)
[4] = biological target: optimized bait-PAR-Grb2, GFP-fused (with inserted flexible linker sequences between fluorophore and Grb2) (UniProt P62993); assay: subcellular micropatterning (bait-prey copatterning, TIRF microscopy); live HeLa cells co-expressing bait-PAR-Grb2 and fluorescent prey on anti-HA antibody patterned COP substrate; bait-normalized prey contrast; basal conditions, before EGF; remark: listed apart in the source
[5] = biological target: optimized bait-PAR-Grb2, RFP-fused (UniProt P62993); assay: subcellular micropatterning (bait-prey copatterning, TIRF microscopy); competition in live HeLa cells: bait-PAR-Grb2-RFP and GFP-fused SOS1 on anti-HA patterns, cyclo(YpVNFΦrpPRR) added to the cells (100 μM over time; dose-response); bait-normalized contrast set between 0 and 100%
[6] = biological target: optimized bait-PAR-Grb2, RFP-fused (UniProt P62993); assay: subcellular micropatterning (bait-prey copatterning, TIRF microscopy); competition in live HeLa cells: bait-PAR-Grb2-RFP and Gab1-GFP on anti-HA patterns, cyclo(YpVNFΦrpPRR) added to the cells (100 μM over time; dose-response); bait-normalized contrast set between 0 and 100%
[7] = biological target: optimized bait-PAR-Grb2, RFP-fused, P62993; assay: subcellular micropatterning (bait-prey copatterning, TIRF microscopy); live HeLa cells with bait-PAR-Grb2-RFP and GFP-fused Gab1 or SOS1 on anti-HA patterns, treated with 10 μM actinomycin D, copatterning followed over time; conditions: remark: other sources report otherwise
[8] = biological target: optimized bait-PAR-Grb2, RFP-fused, P62993; assay: subcellular micropatterning (bait-prey copatterning, TIRF microscopy); live HeLa cells co-expressing bait-PAR-Grb2 and fluorescent prey on anti-HA antibody patterned COP substrate; bait-normalized prey contrast; basal conditions, before EGF; conditions: remark: other sources report otherwise
[9] = biological target: optimized bait-PAR-Grb2, RFP-fused, P62993; assay: TIR-FRAP on bait micropatterns; live HeLa cells co-transfected with bait-PAR-Grb2 and prey on anti-HA patterns; EGF (170 nM) for at least 5 min before FRAP; single patterns bleached for 500 ms; bi-exponential, diffusion-uncoupled two-component fit; conditions: remark: other sources report otherwise
[10] = biological target: optimized bait-PAR-Grb2, RFP-fused, P62993; assay: subcellular micropatterning (bait-prey copatterning, TIRF microscopy); live HeLa cells co-expressing bait-PAR-Grb2 and fluorescent prey on anti-HA antibody patterned COP substrate; bait-normalized prey contrast; after EGF stimulation (170 nM, 10 min); conditions: remark: other sources report otherwise

half-time of dissociation (FRAP) [1]: 10 s
k slow (exchange rate, FRAP) [1]: 0.103 s⁻¹
bait-normalized fluorescence contrast <c prey/bait> [2]: 0.21
bait-normalized fluorescence contrast <c prey/bait> [3]: 0.45
bait-normalized fluorescence contrast <c prey/bait> [4]: 0.14
Molecule: SHC-transforming protein 1 (Shc1), RFP-fused (from UniProt P29353 1-583) (natural protein)

EC50 [5]: 63 µM
dissociation half-life of SOS1 from Grb2 at 100 μM peptide [5]: 36 s
maximum prey dissociation at 100 μM peptide (SOS1 from Grb2) [5]: 70 to 75%
EC50 [6]: 68 µM
dissociation half-life of Gab1 from Grb2 at 100 μM peptide [6]: 42 s
maximum prey dissociation at 100 μM peptide (Gab1 from Grb2) [6]: 70 to 75%
Molecule: cell-permeable cyclic peptide cyclo(YpVNFΦrpPRR)

dissociation half-life with 10 μM actinomycin D [7]: 84 s
reduction of copatterning with 10 μM actinomycin D [7]: 25%
bait-normalized fluorescence contrast <c prey/bait> [8]: 0.55
half-time of dissociation (FRAP) [9]: 13 s
k slow (exchange rate, FRAP) [9]: 0.074 s⁻¹
bait-normalized fluorescence contrast <c prey/bait> [10]: 0.56
B1: son of sevenless protein 1 (SOS1), GFP-fused, Q07889 1-1333 (natural protein)
chain: MQAQQLPYEFFSEENAPKWRGLLVPALKKVQGQVHPTLESNDDALQYVEELILQLLNMLCQAQPRSASDVEERVQKSFPHPIDKWAIADAQSAIEKRKRRNPLSLPVEKIHPLLKEVLGYKIDHQVSVYIVAVLEYISADILKLVGNYVRNIRHYEITKQDIKVAMCADKVLMDMFHQDVEDINILSLTDEEPSTSGEQTYYDLVKAFMAEIRQYIRELNLIIKVFREPFVSNSKLFSANDVENIFSRIVDIHELSVKLLGHIEDTVEMTDEGSPHPLVGSCFEDLAEELAFDPYESYARDILRPGFHDRFLSQLSKPGAALYLQSIGEGFKEAVQYVLPRLLLAPVYHCLHYFELLKQLEEKSEDQEDKECLKQAITALLNVQSGMEKICSKSLAKRRLSESACRFYSQQMKGKQLAIKKMNEIQKNIDGWEGKDIGQCCNEFIMEGTLTRVGAKHERHIFLFDGLMICCKSNHGQPRLPGASNAEYRLKEKFFMRKVQINDKDDTNEYKHAFEIILKDENSVIFSAKSAEEKNNWMAALISLQYRSTLERMLDVTMLQEEKEEQMRLPSADVYRFAEPDSEENIIFEENMQPKAGIPIIKAGTVIKLIERLTYHMYADPNFVRTFLTTYRSFCKPQELLSLIIERFEIPEPEPTEADRIAIENGDQPLSAELKRFRKEYIQPVQLRVLNVCRHWVEHHFYDFERDAYLLQRMEEFIGTVRGKAMKKWVESITKIIQRKKIARDNGPGHNITFQSSPPTVEWHISRPGHIETFDLLTLHPIEIARQLTLLESDLYRAVQPSELVGSVWTKEDKEINSPNLLKMIRHTTNLTLWFEKCIVETENLEERVAVVSRIIEILQVFQELNNFNGVLEVVSAMNSSPVYRLDHTFEQIPSRQKKILEEAHELSEDHYKKYLAKLRSINPPCVPFFGIYLTNILKTEEGNPEVLKRHGKELINFSKRRKVAEITGEIQQYQNQPYCLRVESDIKRFFENLNPMGNSMEKEFTDYLFNKSLEIEPRNPKPLPRFPKKYSYPLKSPGVRPSNPRPGTMRHPTPLQQEPRKISYSRIPESETESTASAPNSPRTPLTPPPASGASSTTDVCSVFDSDHSSPFHSSNDTVFIQVTLPHGPRSASVSSISLTKGTDEVPVPPPVPPRRRPESAPAESSPSKIMSKHLDSPPAIPPRQPTSKAYSPRYSISDRTSISDPPESPPLLPPREPVRTPDVFSSSPLHLQPPPLGKKSDHGNAFFPNSPSPFTPPPPQTPSPHGTRRHLPSPPLTQEVDLHSIAGPPVPPRQSTSQHIPKLPPKTYKREHTHPSMHRDGPPLLENAHSS
